Assay results reported in patent publication US20090068164 (published 2009).

B1: Zif-0-PE1A (structured_DNA)
DNA: GGCGTTATTTATCGCCCACGCGGGTTTTCCCGCGTGGGCGATAAATAACGCC
B2: mCpG-Zif268 (dsDNA)
DNA 1: GCGTACGTAGGACGATACGCCCACGCCACCG
DNA 2: CGGTGGCGTGGGCGTATCGTCCTACGTACGC
modifications: 5mC at the CpG on both strands (GTAmCGTA)

Experiments:
[1] = target: LacA-Zif268 + PE1A-LacB (split beta-lactamase SEER pair) (artificial, UniProt O73693; SEQ:189-286,SEQ:1-88); assay: split beta-lactamase reassembly on cognate target
[2] = target: NGFP-Zif268 + CGFP-MBD2 (human MBD2 residues 147-215; mCpG-SEER pair) (artificial, UniProt P08046;Q9UBB5 P08046:333-419,Q9UBB5:147-215); assay: split GFP reassembly; used as reference (relative fluorescence 1) for specificity set; Zn buffer, 4 C

Binder | binding result [1] | binding result [2]
B1 | binds | –
B2 | – | binds
